# System: MS2 coat protein
# Assay: apparent KD of MS2 coat protein; designed switch direction (-1 OFF switch, 1 ON switch): -1; higher = weaker reporter binding
# Summary of the method: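 Each step of the titration lasted 0.8–1.5 h at the lowest concentration and 10–20 min at the highest. The protein, SNAP-549-labelled MS2 coat protein, went from 0.7 or 1.5 nM doubling to 3 µM over RNA switches transcribed on Illumina chips by stalled E. coli RNA polymerase. Normalised cluster fluorescence was curve-fitted, and the per-design median over clusters is given as apparent KD.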
# [1] = Eterna round: R95, input ligand: microRNA oligo, concentration not stated
# [2] = Eterna round: R95, input ligand: FMN 200 uM
# [3] = Eterna round: R95, input ligand: none
Sequence,apparent KD of MS2 coat protein [1],apparent KD of MS2 coat protein (input ligand: FMN 200 uM),apparent KD of MS2 coat protein (input ligand: none),apparent KD of MS2 coat protein [2],apparent KD of MS2 coat protein [3]
GGUGGACAUGAGGAUCACCCAUGUGAGGAUAUCGGCUGGCUAGUGGCGGAUGGCUUCUCGAGAAGGCGCAUAGU [Exclusion 1 V80] (puzzle: Exclusion 1),50.2 nM,,,,
"GGUGGGCUAGGAUAUGCUUUGGGAAAGCAUUCCUUCGAUAAACUUGAGGAUCACCCAAGUAGAAGGAGCUUGCC [salish99_ex2_r4_020] (Eterna round: R97, puzzle: Exclusion 2)",,16.4 nM,13.4 nM,,
"GGUUCGAAUGUGAGGAUAUGCUGGUCCUUGGAUCAGCAGAAGGCACAUGAGGAUCACCCAUGUGGUAACGGACC [Mat - Exclusion 4 - Eli Mod - D36] (Eterna round: R97, puzzle: Brourd's mod of Exclusion 4)",,178 nM,357 nM,,
GGUUGACAUGAGGAUCACCCAUGUGAGGAUAUGCGAGAGAAAAAAGUGAGGAAGAGAAGCAGAAGGCGCUGUCG [salish99-ex1_r3_014] (puzzle: Exclusion 1),45.1 nM,,,68.7 nM,106 nM
GGUUGACAUGAGGAUCACCCAUGUGAGGAUAUGCGAGAGAAAAAAGUGAGGAAGUAAUGCAGAAGGCGCUGUCG [salish99-ex1_r3_017] (puzzle: Exclusion 1),86.4 nM,,,132 nM,210 nM
GGUUGGCGAGGAUAUACAUGAGGAUCACCCAUGUGAGAAAAAAAAGUGAGGAAGAAAAGUAGAAGGCGCUGACG [salish99_ex3_r3_015] (puzzle: Exclusion 3),37.7 nM,,,67.7 nM,35.6 nM
GGUUGGCGAGGAUAUACAUGAGGAUCACCCAUGUGAGAAAAUAGUGAGGAAAAGAAAAGUAGAAGGCGCUGACG [Mat - Exclusion 3 - Mod of Salish D54] (puzzle: Exclusion 3),38.8 nM,,,320 nM,41.5 nM
GGUUGGCGAGGAUAUACAUGAGGAUCACCCAUGUGAGAGAAAGAAGUGAGGAAGAAAAGUAGAAGGUGCUGACG [salish99_ex3_r3_055] (puzzle: Exclusion 3),63.2 nM,,,56.6 nM,82.7 nM
GGUUGGCGAGGAUAUACAUGAGGAUCACCCAUGUGAGAGAAGAAAGUGAGGAAGAAAAGUAGAAGGCGCUGACG [salish99_ex3_r3_004] (puzzle: Exclusion 3),59 nM,,,133 nM,62.4 nM
GGUUGGCGAGGAUAUACAUGAGGAUCACCCAUGUGAGAGAUAAAAGUGAGGAAGAAAAGUAGAAGGCGCUGACG [salish99_ex3_r3_012] (puzzle: Exclusion 3),29.5 nM,,,155 nM,69 nM
GGUUGGCGAGGAUAUACAUGAGGAUCACCCAUGUGAGAGAUACUAGUGAGGUCGAUUGGUAGAAGGCGCUGACG [JL-ex3-2.02 salish99 mod] (puzzle: Exclusion 3),95.5 nM,,,97.8 nM,135 nM
"GGUUUGCAGCAGGAUAUCCAUCCGCGGUAUGGUGGAGAAGGGCUGACAUGAGGAUCACCCAUGUGCGUCCUAGG [salish99_ex6_r4_017] (Eterna round: R97, puzzle: Exclusion 6)",,58.6 nM,27.6 nM,,
GUAAAAAAAAAGGAUAUCGAACUUAUUAUUUAACGAGAAGGAUGAACAUGAGGAUCACCCAUGUGGUAUCAUGG [test] (puzzle: Exclusion 6),143 nM,,,92.3 nM,213 nM
